# Reference: paper PMC6689051
# Assays:
# Conditions in all cases: 10 mM Tris-HCl pH 7.5, 50 mM KCl, 10 mM MgCl2 (10.1 mM MgCl2 + 0.1 mM EDTA), 23 C; nitrocellulose filter binding, 2 nM-2 uM Fab, 30 min
# [1] = test system: Fab HAVx (synthetic (phage display, humanized Fab4D5 framework, YSGRKX library; expressed in E. coli)), PDB:6MWN_2+PDB:6MWN_3; experiment: filter binding
# [2] = test system: best Fab clone from YSGR library (unnamed) (synthetic (phage display, humanized Fab4D5 framework; expressed in E. coli)); experiment: filter binding
# P0 = experiment: method not stated in excerpt
Substance,Kd [1],Kd [2],Kd (P0)
HAV593-706,49 nM,,
GGCAAACAUCAUUUGGCCUUAAAUGGGAUUCUGUGAGAGGGGAUCCCUCCAUUGACAGCUGGACUGUUCUUUGGGGCCUUAGUGGUGUUUG [HAV dV delU672],> 1000 nM,,
GGCAAACAUCAUUUGGCCUUAAAUGGGAUUCUGUGAGACGGGAUCCCUCCAUUGACAGCUGGACUGUUCUUUGGGGCCUUAUGUGGUGUUUG [HAV dV G631C],58 nM,,
HAV593-720,47 nM,,
GGCAAACAUCAUUUGGCCUUAAAUGGGAUUCUGUGAGAGGGGAUCCCUCCAUUGACAGCUGGACUGUUCUUUGGGGCCUAUGUGGUGUUUG [HAV dV delU674],176 nM,,
GGCAAACAUCAUUUGGCCUUAAAUGGGAUUCUGUGAGAGGGGAUCCCUCCAUUGACAGCUGGACUGUUCUUUGGGGCCUUAUGUGGUGUUUG [HAV dV (HAV593-684)],44 nM,290 nM,220 nM
